{
  "source": "the nanobody polyreactivity screen of Harvey et al. (2022)",
  "data": [
    {"assay": "yeast display, Sf9 membrane polyspecificity reagent, FACS + sequencing; frameworks hold sequencing errors", "in_short": "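Polyreactivity labels are assigned by the sorting gate from which each nanobody was recovered. The gates were low and high (top ~1%), set on anti-HA fluorescence for expression and streptavidin fluorescence for reagent binding. Before sorting, galactose-induced (36–48 hours) yeast display cells were stained for 1 hour at 4 °C with 10% biotinylated, detergent-solubilized Sf9 membrane reagent.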", "values": [
      {"sequence": "QVQLVESGGGLVQAGGSLRLSCAASGRIFFTYAMGWYRQAPGKERELVAAIDRSGTSTYYADSVKGRFTISRDNAKNTVYLQMNRLKPEDTAVYNCAARPNPNYDEMDYWGQGTQVNVSS", "polyreactivity (PSR sort gate)": "low polyreactivity"},
      {"sequence": "QVQLVESGGGLVQAGGSLRLSCAASGRIFFTYTMGWYRQAPGKERELVAAITGGGARTYYADSVKGRFTISRDNSKNTVYLQMNSLKPEDTAVYYCAKGWQRIGFYYWGQGTQVTVSS", "polyreactivity (PSR sort gate)": "high polyreactivity"},
      {"sequence": "QVQLVESGGGLVQAGGSLRLSCAASGRIFFTYTMGWYRQAPVNERELVAAITGGGARTYYADSVKVRFTISRDYAKNTVYLQMNSLKPEDSAVYYCAKGWQRIGFYYWGQGTQVTVSS", "polyreactivity (PSR sort gate)": "high polyreactivity"},
      {"sequence": "QVQLVESGGGLVQAGGSLRLSCAASGRIFFYNTMGWYRQAPGKERELVATISWSGASTYYADSVKGRFTISRDNAKNTVYLQMNSLKPEDTAVDYCAAVTRYTGFDYWGQGTQVTVSS", "polyreactivity (PSR sort gate)": "high polyreactivity"},
      {"sequence": "QVQLVESGGGLVQAGGSLRLSCAASGRIFFYYAMGWYRQAPGKEREFVAAISTSSGSTYYADSVKGRFTISRDNAKNTVYLQMNSLKPEDTAVYYCAADEVYSRGIWPVEDDYWGQGTQVTVSS", "polyreactivity (PSR sort gate)": "low polyreactivity"},
      {"sequence": "QVQLVESGGGLVQAGGSLRLSCAASGRIFFYYAMGWYRQAPGKERELVATITASGDSTYYADSVKGRFTISRDNAKDTVYLQMNSLKPEDTAVYYCAADDGDYYEVDYWGQGTQVTVSS", "polyreactivity (PSR sort gate)": "low polyreactivity"},
      {"sequence": "QVQLVESGGGLVQAGGSLRLSCAASGRIFFYYAMGWYRQAPGKEREMVAAISWSGSSTYYADSVKGRFTISRDNAKNTVYLQMNSLKPEDTAVYYCAADYYIDYFYYDYWGQGTQVTVSS", "polyreactivity (PSR sort gate)": "high polyreactivity"},
      {"sequence": "QVQLVESGGGLVQAGGSLRLSCAASGRIFGAYAMGWSRQAPGKERELVAAITSRGGNTYYADSVKGRFTISRDNAKNTVYLQMNSVKPEDTAVYYCAARHDKRRQYYVGQSAFDYWGQGTQVTVSS", "polyreactivity (PSR sort gate)": "low polyreactivity"},
      {"sequence": "QVQLVESGGGLVQAGGSLRLSCAASGRIFGAYAMGWYIQAPGKERELVAAIDIRGGNTYYADSVKGRFTISRDNAKNTVYFQMNSQKPVDTAVYYCAADTWYDAYNYWGQGTQVTVSS", "polyreactivity (PSR sort gate)": "low polyreactivity"},
      {"sequence": "QVQLVESGGGLVQAGGSLRLSCAASGRIFGAYAMGWYRQAPGKERELVAAITSAGSTHYADSVKGRFTISRDNAKNTVYLQMNCLKPQDTAVYYCAADRYPWPLQYVEYDSDYWGQGTQVTVSS", "polyreactivity (PSR sort gate)": "low polyreactivity"},
      {"sequence": "QVQLVESGGGLVQAGGSLRLSCAASGRIFGAYAMGWYRQAPGKERELVAAITSRGGNTYYADSVKGRFTISRDTAKNTVYLQMNSLKPEDTAVYSCAARHDKRRQYYVGQSAFDYWGQGTQVTVSS", "polyreactivity (PSR sort gate)": "low polyreactivity"},
      {"sequence": "QVQLVESGGGLVQAGGSLRLSCAASGRIFGAYAMGWYRQAPGKERELVATITSDGSTDYADSVKGRFTISRDNAKNTVYLQMNSLKPEDTAVYYCAVAYLWRPYDFREFDYWGQGTQVTVSS", "polyreactivity (PSR sort gate)": "low polyreactivity"},
      {"sequence": "QVQLVESGGGLVQAGGSLRLSCAASGRIFGAYTMGWYRQEPGKERELVAAISDGGDTYYADSVKGRFTISRDNAKNTVYFQMNRVKPEDTAVYYCAADAPYYAYYWFPSSFGIYGYWGQGTQVTVSS", "polyreactivity (PSR sort gate)": "low polyreactivity"},
      {"sequence": "QVQLVESGGGLVQAGGSLRLSCAASGRIFGDNAMGWYRQAPGKERELVAGIRWRADRTYYADSVKWRFTISRDNAKNTVYLQMNSLKPEDTAVYYCNVGSFTGHSYGFGYWGQGTQVTVSS", "polyreactivity (PSR sort gate)": "low polyreactivity"},
      {"sequence": "QVQLVESGGGLVQAGGSLRLSCAASGRIFGDNTMGWYRQAPGKERELVAAISFTGGSTYYADSVKGRFTISRDNAKNTVYLQMNSLKPEDTAVYYCNADWVSTWGYDYWGQGTQVTVSS", "polyreactivity (PSR sort gate)": "low polyreactivity"},
      {"sequence": "QVQLVESGGGLVQAGGSLRLSCAASGRIFGDYAKGWYRQAPGKERELVAAIRFDTGSTYYADSVKGRFTISRDTAKNTVYLQMNSLKPEDTAVYYCAAQHRGVQVTFGEYDYWGQGTQVTVSS", "polyreactivity (PSR sort gate)": "low polyreactivity"},
      {"sequence": "QVQLVESGGGLVQAGGSLRLSCAASGRIFGDYAMGGSRQAPGKERELVAVISVGGRTSYADSVKGRFTISRDNAKNTVYLQMNSLKPEDTAVYYCATRLSTRDGGYWGQGTQVTVSS", "polyreactivity (PSR sort gate)": "low polyreactivity"},
      {"sequence": "QVQLVESGGGLVQAGGSLRLSCAASGRIFGDYAMGWYRQAPGKEMELVAAITSAGSTHYADSVKGRFTISRDNAKNTVYLQMNILKPDDTAVYYCAADGIARAYVLFDAYDFLYDYWGQGTHVTVSS", "polyreactivity (PSR sort gate)": "low polyreactivity"},
      {"sequence": "QVQLVESGGGLVQAGGSLRLSCAASGRIFGDYGMGWYRQAPGKERELVAAITDRGGTTYYADSVKGRFTISRDNAKNTVYLQMNSLKPEDTAVYYCNARQSDIFDYDYWGQGTQVTVSS", "polyreactivity (PSR sort gate)": "low polyreactivity"},
      {"sequence": "QVQLVESGGGLVQAGGSLRLSCAASGRIFGEKAMGWYRQAPGKERELVADITWSGTSTYYADSVKGRFTISRDNAKNTVYLQMNSLKPEDTAVYYCAASATLFSSRGKRYYWGQGTQVTVSS", "polyreactivity (PSR sort gate)": "low polyreactivity"},
      {"sequence": "QVQLVESGGGLVQAGGSLRLSCAASGRIFGENAMGWYRQAPGKEWEFVAVISISDASTYYADSVKGRFTISRDNAKNSVDFQMNSLKPEDTAVYYCAADLTDFLYVASDYWGQGTQVTVSS", "polyreactivity (PSR sort gate)": "low polyreactivity"},
      {"sequence": "QVQLVESGGGLVQAGGSLRLSCAASGRIFGFNARGWYRQAPGKERELVAGITDSSGRTNYADSVKGRFTISRDNAKNTVYLQMNSLKPEDTAVYYCARRRFGQYTERYYWGQGTQVTVSS", "polyreactivity (PSR sort gate)": "low polyreactivity"},
      {"sequence": "QVQLVESGGGLVQAGGSLRLSCAASGRIFGFYVMGWYRQAPGKERELVAAISSRGGSTYYADSVKGRFTISRDNAKNTVYLQMNSLKPEDTAVYYCAASVYREYYDNDDYWGQGTQVTVSS", "polyreactivity (PSR sort gate)": "high polyreactivity"},
      {"sequence": "QVQLVESGGGLVQAGGSLRLSCAASGRIFGGNAMGWYRQAPGKERELVAAISKRGGSTYYADSVKGRFTISRDNAKNTVYLQMNSLKPEDTAVYYCAAGFTAWTGVWYGYWGQGTQVTVSS", "polyreactivity (PSR sort gate)": "high polyreactivity"},
      {"sequence": "QVQLVESGGGLVQAGGSLRLSCAASGRIFGGYAMGWYRQAPGKERELVAAISSSGGRTYYADSVKGRFTISRDNAKNTVYLQMKSLKPEDTAVYYCNAGAGQRVSGHSFEYWGQGTQVTVSS", "polyreactivity (PSR sort gate)": "high polyreactivity"},
      {"sequence": "QVQLVESGGGLVQAGGSLRLSCAASGRIFGGYAMGWYRQAPGKERELVAAITSSGSTNYADSVKGRFTISRDNAKNTVYLQMNSLKPEDTAVYYCATDFKTVYYWWGMDYWGQGTQVTVSS", "polyreactivity (PSR sort gate)": "low polyreactivity"},
      {"sequence": "QVQLVESGGGLVQAGGSLRLSCAASGRIFGGYEMGWYRQAPGKERELVAAITSDSSTTYADSVKGRFTISRDNAKNTVYLQMNSLKPEDTAVYYCAVQVNGPVFYRPYRDYDYWGQGTQVTVSS", "polyreactivity (PSR sort gate)": "low polyreactivity"},
      {"sequence": "QVQLVESGGGLVQAGGSLRLSCAASGRIFGGYGMGWYRPAPGKQRELVAAISSGGNTKYADSVKGRFTISRDNAKNTVYLQMNSLKPEDTAVYHCAAKFAQPDYRYDYWGQGTQVTVSS", "polyreactivity (PSR sort gate)": "high polyreactivity"},
      {"sequence": "QVQLVESGGGLVQAGGSLRLSCAASGRIFGGYTMGWYRQAPGKEREFVAAITSSGGSTYYADSVKGRFTISRDNAKNTVYLQMYSLKPEETAVYYCAVDDYYYDYDYWGQGTQVTVSS", "polyreactivity (PSR sort gate)": "low polyreactivity"},
      {"sequence": "QVQLVESGGGLVQAGGSLRLSCAASGRIFGGYVMGWYRQAPGKERELVAAINGGGGSTYYADSVKGRFTISRDNAKNTVYLQMNSLKPEDTAVYYCMLVKRSQRKSTIDFDYWGQGTQVTVSS", "polyreactivity (PSR sort gate)": "high polyreactivity"},
      {"sequence": "QVQLVESGGGLVQAGGSLRLSCAASGRIFGHNAMGWYRQAPGKERELVAAISYRGCSTYYADSVKGRCTISRDNAKNTVYLQMNSLKPVDTAVYYCAARWNRGRYDYWGQGTEVTVSS", "polyreactivity (PSR sort gate)": "high polyreactivity"},
      {"sequence": "QVQLVESGGGLVQAGGSLRLSCAASGRIFGHYAMGWYRHAPGKERELVAAINWRGGSTYYADSVKGRFTISRDNAKNTVYVQMKSLKPEETGVYYCAADWTKARDSIYDYWGQGSQVTVSS", "polyreactivity (PSR sort gate)": "low polyreactivity"},
      {"sequence": "QVQLVESGGGLVQAGGSLRLSCAASGRIFGHYAMGWYRQAPGKERELVAAISQSGTNTYYADSVKGRFTISRDNAKNTVYLQMNSLKPEDTAVYYCAAKPPRRYQLMDYWGQGTQVTVSS", "polyreactivity (PSR sort gate)": "high polyreactivity"},
      {"sequence": "QVQLVESGGGLVQAGGSLRLSCAASGRIFGINAMGWYRQAPGKERELVAAIDSAGRTYYADSVKGRFTISRDNAKNTVYLQMNSLKPEDTAVYSCNKDHSLYEHNYWGQGTQVTVSS", "polyreactivity (PSR sort gate)": "low polyreactivity"},
      {"sequence": "QVQLVESGGGLVQAGGSLRLSCAASGRIFGIYAMRWYRQAPGKERELVAAISYSGGSTYYADSVKGRFTISRDNAKNTVYLQMNSLNPEDTAVYYCNADYYASYYPYYSIRLDYLGQGTQVTVSS", "polyreactivity (PSR sort gate)": "low polyreactivity"},
      {"sequence": "QVQLVESGGGLVQAGGSLRLSCAASGRIFGKNDMGWYRQAPGKEREFVATIDWSGGSTYYADSVKGRFTISRDNAKNTVYLQMNSLKPEDTAVYYCAASGWNRYLFDYWGQGTQVTVSS", "polyreactivity (PSR sort gate)": "low polyreactivity"},
      {"sequence": "QVQLVESGGGLVQAGGSLRLSCAASGRIFGKYVMGWYRQAPGKERELVAAISRSGGSTSYADSVKGRFTISRDNAKNTVYLQMNSLKPEDTAVYYCAASPAGYLAPRGYYWGQGTQVTVSS", "polyreactivity (PSR sort gate)": "high polyreactivity"},
      {"sequence": "QVQLVESGGGLVQAGGSLRLSCAASGRIFGKYVMVWYRQEPGKERELVAGISWSAGSTYYADSVKGRFTISRDTAKNTVYLQMNSLKPEDSAVYSCAAGLEGGYDYWGQGTEVTVSS", "polyreactivity (PSR sort gate)": "low polyreactivity"},
      {"sequence": "QVQLVESGGGLVQAGGSLRLSCAASGRIFGLYAMGWYRQAPGKERELVAAINRTGNTNYADSVKGRFTISRDNAKNTVYLQMNSLKPEDTAVYYCAARFPYWRRYDYWGQGTQVTVSS", "polyreactivity (PSR sort gate)": "high polyreactivity"},
      {"sequence": "QVQLVESGGGLVQAGGSLRLSCAASGRIFGLYAMGWYRQAPGKERELVAAISRGGGSTYYADSVKGRFTISRDNAKNTVYLQMNSLKPEDTAVYYCATGLGYFSRLDYWGQGTLVTVSS", "polyreactivity (PSR sort gate)": "low polyreactivity"},
      {"sequence": "QVQLVESGGGLVQAGGSLRLSCAASGRIFGLYAMGWYRQAPGKERELVAAISRGGGSTYYADSVKGRFTISRDNAKNTVYLQMNSLKPEDTAVYYCATGLGYFSRLDYWGQGTQVTVSS", "polyreactivity (PSR sort gate)": "low polyreactivity"},
      {"sequence": "QVQLVESGGGLVQAGGSLRLSCAASGRIFGLYAMGWYRQAPGKERELVAAISWSGGRTYYADSVKGRFTISRDNAKNTVYLQMNSLKPEDTAVYYCAARSYYRSQYGFDFWGQGTQVTVSS", "polyreactivity (PSR sort gate)": "high polyreactivity"},
      {"sequence": "QVQLVESGGGLVQAGGSLRLSCAASGRIFGLYAMGWYRQAPGKERELVAAITSSTGSTYYADSVKGRFTISRDNAKNTVYLQMNSLKPEDTAVYYCAADLYSPSIYGYIYYTWLDYWGQGTQVTVSS", "polyreactivity (PSR sort gate)": "high polyreactivity"}
    ]}
  ]
}
